Residue numbers refer to the chain shown, from its start. “Also recorded” adds a separate entry of the source.
Legend:
FXa = FXa (Bos taurus, UniProt P00743); assay: Cleavage of fusion proteins by FXa, SDS PAGE; type: biochemical, bovine; conditions: protease:fusion protein 1:1000, 23° C.
Procedure: (§1) Both H6-IEPD-RAP (SEQ ID NO: 23) and H6-IEGR-RAP were in 100 mM HEPES pH 7.4 and the following incubations were set up at room temperature, 23° C., with the protease:fusion protein ratio 1:1000: • 1. […] 400 μl (app. 400 μg) H6-GrB-RAP+2 μl GrB-H6 (app. 0.4 μg)
250 μl (app. 400 μg) H6Ubi-IEPD-ApoA1+0.4 μg GrB-H6 C228F • 2.

[1] = Colorimetric Granzyme B activity assay with Ac-IEPD-pNA (absorbance at 405 nm); type: biochemical; conditions: for Granzyme B activity ΔOD405/min: pro-IEGR-GrB-H6 incubated with FXa at 4° C.; for completion of self-activation: 4° C., without addition of previously activated Granzyme B; for ΔOD405/min (self-activation): 100 mM HEPES pH 7.5
Procedure: GrB-H6 activity was measured using the following mix: 500 μl buffer, 2 μl 100 mM Ac-IEPD-pNA, and 5 μl GrB-H6.
Recombinant self-activating human Granzyme B derivatives IEPD-GrB-H6 and IEAD-GrB-H6 were produced as described in Example 2 by using the expression vectors pT7-IEPD-GrB-H6 and pT7-IEAD-GrB-H6 described in Example 1. The IEAD-GrB-H6 and IEPD-GrB-H6 proteins were eluted from the SP Sepharose columns and stored at 4° C. for 2 days before the activity of the respective top fractions were determined by using a colorimetric assay. For this purpose the following was mixed: 500 μl buffer (100 mM HEPES pH 7.5), 2 μl 100 mM Ac-IEPD-pNA, and 5 μl protein solution. The change in absorption was then determined at 405 nm during 3 min. The activity was further determined after additional incubation for 1 and 2 days at 4° C.
The activity of the activated and purified GrB-H6 was measured in different buffers using the Ac-IEPD-pNA substrate: 500 μl buffer, 2 μl 100 mM Ac-IEPD-pNA, and 5 μl GrB-H6. The ΔOD405/min was calculated from the first 0.75 min unless otherwise noted.

GrB-H6 = target: T1, GrB-H6 (Homo sapiens, UniProt P10144, R55Q); assay: Cleavage of fusion proteins by GrB-H6, SDS PAGE; type: biochemical; conditions: for fusion protein cleaved at IEPD↓ and internal AQPD↓ site: 10 μl GrB-H6, no Ca^2+
T1 construct: MGSIEGR (N, cleaved yes); made in house; host or cells: E. coli BL21
Procedure: The fusion protein H6-TripUB IEPD↓SP (SEQ ID NO: 22) (prepared as described in Example 7) eluted from the Ni^2+-NTA-agarose column was gel filtrated into 100 mM HEPES pH 7.5 and 200 μl samples of the top-fraction was incubated at room temperature with either 0, 1 or 10 μl of activated GrB-H6 (approximately 0, 0.2 and 2 μg GrB-H6).
With the H6-TripUB IEPD↓SP (SEQ ID NO: 22) fusion protein the following nine incubations (Table 9) were set up using 200 μl H6-TripUB IEPD↓SP (SEQ ID NO: 22) and 5 μl GrB-H6 (approximately 1 μg GrB-H6) for each incubation.
The fusion protein H6-IEPD-RAP (SEQ ID NO: 23) (prepared as described in Example 7) eluted from the Ni^2+-NTA-agarose column was gel filtrated into 100 mM HEPES pH 7.4 and 200 μl samples of the top-fraction was incubated at room temperature with either 0, 1 or 10 μl of activated GrB-H6 (approximately 0, 0.2 and 2 μg GrB-H6). Samples for SDS PAGE were taken after 5, 23 and 26 hours of incubation, see FIG. 10.
as §1
The fusion protein H6-IEPD-TN123 (SEQ ID NO: 25) (prepared as described in Example 7) eluted from the Q Sepharose was after final purification gel filtrated into 100 mM HEPES pH 7.5, and 200 μl samples of the top-fraction was incubated at room temperature with either 0, 1 or 10 μl of activated GrB-H6 (approximately 0, 0.2 and 2 μg GrB-H6) both with and without 5 mM CaCl2 present. Samples for SDS PAGE from the incubations without CaCl2 were taken after 12, 19 and 24 hours as well as 5 days of incubation. Samples for SDS PAGE from the incubations both with and without CaCl2 were taken after approximately 20 and 48 hours of incubation, see FIG. 14.
Each of the fusion proteins eluted from the Ni^2+-NTA-agarose column were gel filtrated into 100 mM HEPES pH 7.4 and fractions of approximately the same concentration of the five different H6-TripUB variants were used. The five variants were H6-TripUB IEPD↓SP (SEQ ID NO: 22), H6-TripUB IQAD↓SP (SEQ ID NO: 26), H6-TripUB IQAD↓SG (SEQ ID NO: 27), H6-TripUB VGPD↓SP (SEQ ID NO: 28) and H6-TripUB VGPD↓FG (SEQ ID NO: 29). Of each fusion protein 200 μl was incubated at room temperature, 23° C., with 5 μl of activated GrB-H6 (approximately 1 μg GrB-H6). The protease:fusion protein ratio was thereby 1:500.

Sequence of FXa (P00743 234-492 limits assumed): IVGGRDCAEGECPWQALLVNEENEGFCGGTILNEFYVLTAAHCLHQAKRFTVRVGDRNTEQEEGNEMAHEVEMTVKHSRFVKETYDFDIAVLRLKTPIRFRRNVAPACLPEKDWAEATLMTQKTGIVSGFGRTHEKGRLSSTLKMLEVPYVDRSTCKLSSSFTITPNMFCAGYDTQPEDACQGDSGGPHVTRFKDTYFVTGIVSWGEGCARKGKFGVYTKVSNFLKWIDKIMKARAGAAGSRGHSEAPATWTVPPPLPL
Sequence of FXa (P00743 41-180 partner limits assumed): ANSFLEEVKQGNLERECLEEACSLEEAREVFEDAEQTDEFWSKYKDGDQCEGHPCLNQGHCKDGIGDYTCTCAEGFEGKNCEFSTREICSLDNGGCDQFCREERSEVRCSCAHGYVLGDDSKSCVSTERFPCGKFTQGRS

For “H6-IEGR-RAP: FXa cleavable hexa-His RAP fusion protein with recognition sequence IEGR”, the “correctly cleaved product left” value (FXa; 27 hours) was “no correctly cleaved product left” and the “fusion protein correctly cleaved” value (FXa; ½ hour) was “almost all of the fusion protein has been cleaved”.

In the case of “pro-IEGR-GrB-H6: pro-Granzyme B fusion protein with FXa recognition sequence IEGR and C-terminal hexa-His tag, SEQ ID NO:1”, the “Granzyme B activity ΔOD405/min” value ([1]; 0 hours) is reported as 0.0073 ΔOD405/min, the “Granzyme B activity ΔOD405/min” value ([1]; 2 hours) is reported as 0.0200 ΔOD405/min and the “Granzyme B activity ΔOD405/min” value ([1]; 5 hours) is reported as 0.0250 ΔOD405/min. The “Granzyme B activity ΔOD405/min” value ([1]; 19 hours) was 0.0829 ΔOD405/min, the “Granzyme B activity ΔOD405/min” value ([1]; 2 days (45 hours)) was 0.1325 ΔOD405/min and the “Granzyme B activity ΔOD405/min” value ([1]; 5 days (120 hours)) was 0.1832 ΔOD405/min.

B1: H6-IEPD-TN123: hexa-His Tetranectin (TN123) fusion protein with Granzyme B recognition site IEPD, SEQ ID NO. 25 (protein)
chain: MGSHHHHHHGSIEPDGEPPTQKPKKIVNAKKDVVNTKMFEELKSRLDTLAQEVALLKEQQALQTVCLKGTKVHMKCFLAFTQTKTFHEASEDCISRGGTLSTPQTGSENDALYEYLRQSVGNEAEIWLGLNDMAAEGTWVDMTGARIAYKNWETEITAQPDGGKTENCAVLSGAANGKWFDKRCRDQLPYICQFGIV
modifications: H6-IEPD-TN123
For B1, the “internal cleavage at AQPD↓ site” value (GrB-H6; 5 mM Ca^2+ added) was “no internal cleavage is observed”, the “fusion protein cleaved at IEPD↓ and internal AQPD↓ site” value (GrB-H6; 2 days) was “almost all the fusion protein has been cleaved twice” and the “fusion protein cleaved at IEPD↓ and internal AQPD↓ site” value (GrB-H6; 5 days) was “almost all of the fusion protein has been cleaved twice”. The “fusion protein correctly cleaved” value (GrB-H6; 200 μl fusion protein + 10 μl GrB-H6, 5 mM Ca^2+, 12 hours) was “approximately 40%” and the sites cleaved (GrB-H6; no Ca^2+ present) was “cleaved correctly at the IEPD sequence, but also just as rapidly at an internal site of the sequence AQPD”.

B2: IEPD-GrB-H6: self-activating human pro-Granzyme B with IEPD recognition site and C-terminal H6, SEQ ID NO:2 (protein)
chain: MGSIEPDIIGGHEAKPHSRPYMAYLMIWDQKSLKRCGGFLIQDDFVLTAAHCWGSSINVTLGAHNIKEQEPTQQFIPVKRPIPHPAYNPKNFSNDIMLLQLERKAKRTRAVQPLRLPSNKAQVKPGQTCSVAGWGQTAPLGKHSHTLQEVKMTVQEDRKCESDLRHYYDSTIELCVGDPEIKKTSFKGDSGGPLVCNKVAQGIVSYGRNNGMPPRACTKVSSFVHWIKKTMKRYLNSHHHHHH
modifications: C-terminal His6 tag; pro-IEPD-GrB-H6
For B2, the completion of self-activation [1] was “not completed until after a least three or four days”, the “ΔOD405/min (self-activation)” value ([1]; stored at 4° C. 2 days) was 0.1284 ΔOD405/min and the “ΔOD405/min (self-activation)” value ([1]; stored at 4° C. 3 days) was 0.1375 ΔOD405/min. For the same molecule, the “ΔOD405/min (self-activation)” value ([1]; stored at 4° C. 4 days) was 0.1351 ΔOD405/min.

B3: IEAD-GrB-H6: self-activating human pro-Granzyme B with IEAD recognition site and C-terminal H6, SEQ ID NO:3 (protein)
chain: B2 chain with P6A
modifications: pro-IEAD-GrB-H6
For B3, the completion of self-activation [1] was “not completed until after a least three or four days”, the “ΔOD405/min (self-activation)” value ([1]; stored at 4° C. 2 days) was 0.1372 ΔOD405/min and the “ΔOD405/min (self-activation)” value ([1]; stored at 4° C. 3 days) was 0.1607 ΔOD405/min. The “ΔOD405/min (self-activation)” value ([1]; stored at 4° C. 4 days) was 0.1983 ΔOD405/min.

B4: H6-IEPD-RAP: hexa-His RAP fusion protein with Granzyme B recognition site IEPD, SEQ ID NO. 23 (protein)
chain: MGSHHHHHHGSIEPDYSREKNQPKPSPKRESGEEFRMEKLNQLWEKAQRLHLPPVRLAELHADLKIQERDELAWKKLKLDGLDEDGEKEARLIRNLNVILAKYGLDGKKDARQVTSNSLSGTQEDGLDDPRLEKLWHKAKTSGKFSGEELDKLWREFLHHKEKVHEYNVLLETLSRTEEIHENVISPSDLSDIKGSVLHSRHTELKEKLRSINQGLDRLRRVSHQGYSTEAEFEEPRVIDLWDLAQSANLTDKELEAFREELKHFEAKIEKHNHYQKQLEIAHEKLRHAESVGDGERVSRSREKHALLEGRTKELGYTVKKHLQDLSGRISRARHNEL
modifications: H6-IEPD-RAP
With B4 the “GrB-sensitive sites in RAP” value (GrB-H6; 19 possible sites (19 Asp residues)) was “only one GrB-sensitive site”, the fusion protein cleaved (GrB-H6; 200 μl fusion protein + 1 or 10 μl GrB-H6, room temperature, 5 hours) was “all the H6-IEPD-RAP (SEQ ID NO: 23) has been cleaved to give the final product; also recorded: all the H6-IEPD-RAP (SEQ ID NO: 23) was cleaved to give the final product” and the “fusion protein correctly cleaved” value (GrB-H6; protease:fusion protein 1:1000, 23° C., ½ hour) was “nearly all the H6-IEPD-RAP (SEQ ID NO: 23) has been cleaved correctly”.

Source: patent US8541200B2, “Cleavage of fusion proteins using Granzyme B protease” (Hoffmann-La Roche Inc., priority 2003, dated 2013)
